Source: patent publication US20200247902A1

Biological target: bovine submaxillary mucin (BSM) (bovine)
Experiment: ELISA on BSM-coated wells, 0-100 nM antibody; periodate-treated signal subtracted (periodate-sensitive STn binding curve)

B1: SIA01 (antibody, V domains shown)
VH: EVQLVQSGAEVKKPGASVKVSCKASGYTFTDHAIHWVRQAPGQGLEWMGYFSPGNDDIKYNEKFRGRVTMTADKSSSTAYMELRSLRSDDTAVYFCKRSLSTPYWGQGTLVTVSS
VL: DIVMTQSPDSLAVSLGERATINCKSSQSLLNRGNHKNYLTWYQQKPGQPPKLLIYWASTRESGVPDRFSGSGSGTDFTLTISSLQAEDVAVYYCQNDYTYPYTFGQGTKVEIK
For B1, the EC50 was 4.2 nM.
